For 1 substance, stoichiometry N results are on record in paper PMC13411919.

This assay has as its target trimeric BG505.SOSIP.664 T332N-avi-biotinylated protein (HIV-1 (BG505, clade A)). The assay is described as follows: native gel or EMSA; BN-PAGE (NuPAGE 4-12% BisTris) of the SEC trimer peak, before and after biotinylation.

On to “trimeric BG505.SOSIP.664 T332N-avi-biotinylated protein (domain or fragment)”, for which the stoichiometry N – broadly, the number of molecules, sites or subunits per partner or assembly – was 3.
